Measurements reported in article PMC10841737 (Biochemistry, 2023).
Read-outs that look alike come from different tables or passages of the source.

Legend:
[1] = target: T1, Cy5-Sub1 (Sub1-Cys) (Saccharomyces cerevisiae, UniProt P54000 1-292+=C, internal_change); experiment: stopped-flow FRET dissociation
T1 sequence: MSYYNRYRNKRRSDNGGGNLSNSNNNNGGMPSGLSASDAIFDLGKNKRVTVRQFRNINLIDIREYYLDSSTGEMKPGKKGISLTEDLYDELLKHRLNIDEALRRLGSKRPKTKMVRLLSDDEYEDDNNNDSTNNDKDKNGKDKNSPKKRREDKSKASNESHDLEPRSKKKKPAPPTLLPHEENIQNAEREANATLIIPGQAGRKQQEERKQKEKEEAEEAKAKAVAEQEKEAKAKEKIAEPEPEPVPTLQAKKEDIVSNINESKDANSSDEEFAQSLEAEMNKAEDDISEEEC

[2] = target: T2, Cdc13 (Saccharomyces cerevisiae, UniProt P32797 1-924); experiment: EMSA
T2 sequence: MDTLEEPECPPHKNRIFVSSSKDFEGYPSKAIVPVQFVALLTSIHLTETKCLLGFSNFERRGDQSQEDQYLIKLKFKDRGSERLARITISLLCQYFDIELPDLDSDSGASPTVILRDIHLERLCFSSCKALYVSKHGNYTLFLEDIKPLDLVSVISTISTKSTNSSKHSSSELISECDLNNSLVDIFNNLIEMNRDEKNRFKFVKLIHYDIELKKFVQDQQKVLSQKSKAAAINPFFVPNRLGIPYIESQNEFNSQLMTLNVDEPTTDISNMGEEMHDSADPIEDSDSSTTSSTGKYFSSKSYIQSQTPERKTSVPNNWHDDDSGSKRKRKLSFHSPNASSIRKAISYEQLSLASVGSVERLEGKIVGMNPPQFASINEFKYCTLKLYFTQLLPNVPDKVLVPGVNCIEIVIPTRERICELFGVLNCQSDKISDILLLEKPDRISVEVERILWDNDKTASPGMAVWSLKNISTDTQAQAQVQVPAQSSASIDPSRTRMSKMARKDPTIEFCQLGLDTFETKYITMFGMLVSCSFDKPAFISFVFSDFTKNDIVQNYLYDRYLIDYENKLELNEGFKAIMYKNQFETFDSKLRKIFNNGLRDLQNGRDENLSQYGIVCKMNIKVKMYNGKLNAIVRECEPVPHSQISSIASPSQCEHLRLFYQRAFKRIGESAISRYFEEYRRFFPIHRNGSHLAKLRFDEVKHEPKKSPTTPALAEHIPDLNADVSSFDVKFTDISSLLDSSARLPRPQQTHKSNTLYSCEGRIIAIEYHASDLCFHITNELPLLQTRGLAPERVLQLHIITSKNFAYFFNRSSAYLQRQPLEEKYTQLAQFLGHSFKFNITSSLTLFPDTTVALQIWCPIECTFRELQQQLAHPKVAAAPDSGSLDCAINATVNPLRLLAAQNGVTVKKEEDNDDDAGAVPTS

[3] = target: T3, S. cerevisiae Pif1 helicase (S. cerevisiae, UniProt P07271 46-859); experiment: fluorescence polarisation
T3 sequence (looked up): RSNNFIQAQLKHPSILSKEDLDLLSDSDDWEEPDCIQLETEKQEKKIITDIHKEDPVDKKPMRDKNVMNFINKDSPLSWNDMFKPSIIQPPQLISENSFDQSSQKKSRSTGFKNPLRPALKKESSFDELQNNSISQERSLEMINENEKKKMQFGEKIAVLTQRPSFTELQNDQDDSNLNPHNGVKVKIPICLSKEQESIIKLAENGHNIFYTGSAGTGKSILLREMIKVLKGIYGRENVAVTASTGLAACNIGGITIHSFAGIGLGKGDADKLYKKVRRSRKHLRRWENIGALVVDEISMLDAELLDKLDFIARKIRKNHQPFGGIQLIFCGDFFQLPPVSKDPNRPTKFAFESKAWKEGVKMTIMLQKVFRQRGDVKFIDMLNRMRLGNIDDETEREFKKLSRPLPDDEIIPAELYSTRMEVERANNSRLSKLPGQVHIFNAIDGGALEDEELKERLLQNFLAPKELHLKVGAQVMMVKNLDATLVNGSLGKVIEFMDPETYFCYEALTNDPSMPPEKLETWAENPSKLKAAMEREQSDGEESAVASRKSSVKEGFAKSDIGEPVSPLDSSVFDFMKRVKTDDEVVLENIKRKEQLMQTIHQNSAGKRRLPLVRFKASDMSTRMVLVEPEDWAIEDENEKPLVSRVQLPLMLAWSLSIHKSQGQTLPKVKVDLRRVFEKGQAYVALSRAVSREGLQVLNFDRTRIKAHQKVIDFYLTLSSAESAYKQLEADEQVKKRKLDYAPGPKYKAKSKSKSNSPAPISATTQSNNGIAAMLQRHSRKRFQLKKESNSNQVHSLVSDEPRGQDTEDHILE

[4] = target: T4, Sub1 (Saccharomyces cerevisiae, UniProt P54000 1-292); experiment: filter binding
T4 sequence: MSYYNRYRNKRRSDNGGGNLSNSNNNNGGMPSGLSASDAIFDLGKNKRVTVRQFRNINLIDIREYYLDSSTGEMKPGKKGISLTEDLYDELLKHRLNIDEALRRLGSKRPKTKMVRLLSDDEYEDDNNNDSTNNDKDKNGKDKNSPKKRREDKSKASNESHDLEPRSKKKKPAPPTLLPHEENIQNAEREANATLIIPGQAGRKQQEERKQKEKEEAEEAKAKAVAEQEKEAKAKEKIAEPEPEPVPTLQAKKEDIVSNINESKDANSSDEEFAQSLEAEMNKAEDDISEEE

[5] = target: T1, Cy5-Sub1 (Sub1-Cys); experiment: filter binding
[6] = target: T2, Cdc13; experiment: EMSA; remark: listed apart in the source
[7] = target: T2, Cdc13; experiment: EMSA; remark: listed apart in the source
[8] = target: T2, Cdc13; experiment: EMSA; remark: listed apart in the source

TTTTTTTTTTTTTTGAGGGTGGGTAGGGTGGGT (structured_DNA) [Cy3-G4 DNA]: binds [1].

In the case of CTGTGGGTGTG (ssDNA) [Tel11 (G1C)], the “apparent K (half saturation)” value [2] is reported as 150 ± 14.7 nM.

B1: Cy5-labeled Sub1 (Sub1-Cys variant labeled with Cy5-maleimide) (natural protein, yeast (S. cerevisiae), UniProt P54000 1-292, looked up)
chain: MSYYNRYRNKRRSDNGGGNLSNSNNNNGGMPSGLSASDAIFDLGKNKRVTVRQFRNINLIDIREYYLDSSTGEMKPGKKGISLTEDLYDELLKHRLNIDEALRRLGSKRPKTKMVRLLSDDEYEDDNNNDSTNNDKDKNGKDKNSPKKRREDKSKASNESHDLEPRSKKKKPAPPTLLPHEENIQNAEREANATLIIPGQAGRKQQEERKQKEKEEAEEAKAKAVAEQEKEAKAKEKIAEPEPEPVPTLQAKKEDIVSNINESKDANSSDEEFAQSLEAEMNKAEDDISEEEC
modifications: Cy5 (maleimide) on the cysteine added at the C-terminal end; one molecule of Cy5 dye per protein
B1 showed a Kd [3] of 53 nM.

For TTTTTTTTTTTTTTTGAGGGTGGGTAGGGTGGGTAA (structured_DNA) [G4DNA], the Kd [4] was 0.86 ± 0.18 nM and the Kd [5] was 2.9 ± 1.3 nM.

GTGTGGGTGTG (ssDNA) [Tel11 telomere seq] was tested, and the “apparent K (half saturation)” value [6] was 15.3 ± 0.9 nM.

For CGCTGATGTCGC (ssDNA) [12 nt Mixed seq], the “apparent K (half saturation)” value [7] was 124 ± 8.8 nM.

In the case of GTGTGGCTCTG (ssDNA) [Tel11 (G7C/G9C)], the “apparent K (half saturation)” value [8] is reported as 96.7 ± 3 nM.
